Experimental data: IntAct's records for PubMed 24418540

Target: pebb_human CBFB (UniProt Q13951)

Substance | effect of a mutation on the interaction
Virion infectivity factor (Human immunodeficiency virus type 1 group M subtype B (isolate HXB2) (HIV-1)), P69723 Y69A | decreasing interaction strength
Virion infectivity factor (Human immunodeficiency virus type 1 group M subtype B (isolate HXB2) (HIV-1)), P69723 W21A | disrupting interaction strength
Virion infectivity factor (Human immunodeficiency virus type 1 group M subtype B (isolate HXB2) (HIV-1)), P69723 W89A | disrupting interaction strength
Virion infectivity factor (Human immunodeficiency virus type 1 group M subtype B (isolate HXB2) (HIV-1)), P69723 E88A;W89A | disrupting interaction strength
Virion infectivity factor (Human immunodeficiency virus type 1 group M subtype B (isolate HXB2) (HIV-1)), P69723 W38A | decreasing interaction strength
